Assay results taken from article PMC8287531 (The Journal of Cell Biology, 2021).

Legend:
[1] = target: T1, TLNRD1 four-helix domain (TLNRD1-4H, residues 143-273) (human, UniProt Q9H1K6 143-273); assay: fluorescence polarisation; serial dilution of protein against 100 nM fluorescein- or BODIPY-TMR-coupled peptide; 20°C; one-site total binding equation; triplicate; conditions: both partners purified
T1 construct: Human TLNRD1 four-helix domain, residues 143-273, sub-cloned into pET151; Density was traced for residues 148-270 in PDB 6XZ3; also called 4H domain
T1 sequence (Q9H1K6 143-273): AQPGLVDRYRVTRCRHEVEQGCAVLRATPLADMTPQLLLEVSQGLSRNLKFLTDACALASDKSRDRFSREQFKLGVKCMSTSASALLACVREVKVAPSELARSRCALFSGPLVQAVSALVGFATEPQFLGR

talin R7R8 rod domains = target: T2, talin R7R8 rod domains (UniProt Q9Y490 1359-1659); assay: as above; conditions: both partners purified
T2 construct: Talin R7R8 rod domains; the construct used in the assays is not described in the methods
T2 sequence (Q9Y490 1359-1659): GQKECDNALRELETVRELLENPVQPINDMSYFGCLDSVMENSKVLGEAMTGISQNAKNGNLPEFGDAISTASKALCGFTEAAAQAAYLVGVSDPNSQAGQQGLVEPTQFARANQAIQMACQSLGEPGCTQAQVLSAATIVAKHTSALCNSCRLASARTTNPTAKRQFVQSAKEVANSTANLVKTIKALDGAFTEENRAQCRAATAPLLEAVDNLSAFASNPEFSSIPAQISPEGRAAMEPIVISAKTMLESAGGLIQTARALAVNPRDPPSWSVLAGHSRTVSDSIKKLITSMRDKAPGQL

B1: lamellipodin(20-46) peptide (peptide)
peptide: EDQDLDKMFGAWLGELDRLTQSLDSDKC
modifications: coupled with either a fluorescein or BODIPY-TMR dye (which one is not stated for this peptide)
notes: Lamellipodin residues 20-46; added C-terminal cysteine residue; source: synthetic peptide (GLBiochem, Shanghai)
In the case of B1, the Kd [1] is reported as 9 µM.

B2: KANK1(30-60) peptide, KN domain LD motif, BODIPY-labeled (peptide)
peptide: PYFVETPYGFQLDLDFVKYVDDIQKGNTIKKC
modifications: BODIPY-labeled
notes: KANK1 KN domain LD motif, residues 30-60; added C-terminal cysteine residue; also called KANK1 KN domain LD motif (residues 30-60); source: synthetic peptide (GLBiochem, Shanghai)
For B2, the Kd (talin R7R8 rod domains) was 0.35 µM.
